Laboratory results as given in publication PMC3470569, “Probing Subunit-Subunit Interactions in the Yeast Vacuolar ATPase by Peptide Arrays” (PLoS ONE, 2012).
Each block holds one binder with its values, some of them ahead of it. Ends that are not written are not given here. cellulose = not defined here

Key:
Test in all cases: peptide or protein array; 20-mer peptides linked at their C-terminal end to cellulose and spotted in duplicate on glass slides; blocked in 2% nonfat milk; purified probe at 4 µM in TBS for 1 hour at 4°C; bound probe detected through MBP or FLAG with HRP-coupled antibody (chemiluminescence); hits by ANOVA (p 0.05, Bonferroni) and HCL in MeV, score of at least 1 in 75% of the spots
Details in all cases: both partners purified
[1] = molecular target: T1, subunit E (Vma4p), N-terminal MBP fusion (S. cerevisiae, UniProt P22203 1-233)
T1 construct: V-ATPase subunit E (Vma4p), S. cerevisiae, 233 amino acids; also called MBP-E; source: E. coli, purified (amylose column); not shown: MBP, N-terminal, kept
T1 sequence (looked up): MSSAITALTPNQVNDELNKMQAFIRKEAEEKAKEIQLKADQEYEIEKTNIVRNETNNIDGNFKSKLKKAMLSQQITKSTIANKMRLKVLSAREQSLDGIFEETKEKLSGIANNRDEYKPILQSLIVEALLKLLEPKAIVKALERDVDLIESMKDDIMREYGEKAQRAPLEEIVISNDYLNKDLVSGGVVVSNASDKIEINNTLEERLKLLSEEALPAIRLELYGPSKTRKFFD

[2] = molecular target: T2, full-length subunit H (Vma13p), N-terminal MBP fusion (S. cerevisiae, UniProt P41807 1-478)
T2 construct: V-ATPase subunit H (Vma13p), S. cerevisiae, 478 amino acids; Construct provided by the laboratory of Dr. Patricia Kane; also called MBP-H; source: E. coli, purified (amylose column; ultrafiltration or size exclusion chromatography); not shown: MBP, N-terminal, kept
T2 sequence (looked up): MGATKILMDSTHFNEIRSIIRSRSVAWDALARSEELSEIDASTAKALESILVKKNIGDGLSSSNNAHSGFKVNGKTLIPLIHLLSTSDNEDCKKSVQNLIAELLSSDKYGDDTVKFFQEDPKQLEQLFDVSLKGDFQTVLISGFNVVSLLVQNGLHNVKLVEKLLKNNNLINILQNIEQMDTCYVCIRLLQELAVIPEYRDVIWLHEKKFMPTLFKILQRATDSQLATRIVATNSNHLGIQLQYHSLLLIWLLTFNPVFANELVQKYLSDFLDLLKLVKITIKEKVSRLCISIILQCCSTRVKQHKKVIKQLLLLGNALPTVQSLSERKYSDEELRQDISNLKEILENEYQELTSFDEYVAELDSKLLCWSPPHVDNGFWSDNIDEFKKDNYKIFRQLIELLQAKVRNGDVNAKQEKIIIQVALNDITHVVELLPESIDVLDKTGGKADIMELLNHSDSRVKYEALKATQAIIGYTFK

[3] = molecular target: T3, full-length subunit C, N-terminal MBP fusion (S. cerevisiae, UniProt P31412 1-392)
T3 construct: V-ATPase subunit C, S. cerevisiae, 392 amino acids; also called MBP-C; source: E. coli, purified (amylose column); not shown: MBP, N-terminal, kept
T3 sequence (looked up): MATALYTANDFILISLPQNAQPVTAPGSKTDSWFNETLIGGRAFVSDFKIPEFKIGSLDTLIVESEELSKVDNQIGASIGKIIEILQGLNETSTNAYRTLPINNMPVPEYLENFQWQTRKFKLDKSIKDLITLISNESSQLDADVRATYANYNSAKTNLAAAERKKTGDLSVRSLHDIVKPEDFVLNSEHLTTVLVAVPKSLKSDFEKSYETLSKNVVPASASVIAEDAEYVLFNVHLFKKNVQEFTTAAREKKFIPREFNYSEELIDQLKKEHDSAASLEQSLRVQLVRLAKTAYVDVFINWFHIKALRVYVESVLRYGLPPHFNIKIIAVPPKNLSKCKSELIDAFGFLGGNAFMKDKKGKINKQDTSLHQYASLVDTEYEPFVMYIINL

[4] = molecular target: T4, C-terminal domain of subunit H (HCT), N-terminal MBP fusion (S. cerevisiae, UniProt P41807 353-478)
T4 construct: V-ATPase subunit H (Vma13p), S. cerevisiae, C-terminal globular domain 353-478 (126 amino acids); Construct provided by the laboratory of Dr. Patricia Kane; also called MBP-HCT; source: E. coli, purified (amylose column; ultrafiltration or size exclusion chromatography); not shown: MBP, N-terminal, kept
T4 sequence (looked up): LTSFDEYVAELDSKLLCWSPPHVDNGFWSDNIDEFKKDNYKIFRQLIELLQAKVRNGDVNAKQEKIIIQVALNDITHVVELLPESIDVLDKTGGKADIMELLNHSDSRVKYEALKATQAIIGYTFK

[5] = molecular target: maltose binding protein (MBP) only (UniProt P0AEX9 27-396 = MBP)

- binding result [3]: binds
- binding result [4]: binds
B2: A(205-224) (peptide, UniProt P17255 205-224, looked up)
peptide: GKKSDFTLYHTWPVRVPRPV-cellulose
modifications: reading uncertain
notes: source: synthetic peptide, spotted on glass slide array (Intavis)

- binding result [3]: binds
B4: B(61-80) (peptide, UniProt P16140 61-80, looked up)
peptide: TVRQGQVLEIRGDRAIVQVF-cellulose
modifications: reading uncertain
notes: V-ATPase subunit B, S. cerevisiae, residues 61-80; source: synthetic peptide, spotted on glass slide array (Intavis)

Continued, binder first:

B1: d(151-170) (peptide, UniProt P32366 151-170, looked up)
peptide: TVLVDTPLAPYFKNCFDTAE-cellulose
modifications: reading uncertain
notes: as for B2
- binding result [1]: binds
- binding result [2]: binds

B3: C(11-30) (peptide, UniProt P31412 11-30, looked up)
peptide: FILISLPQNAQPVTAPGSKT-cellulose
modifications: reading uncertain
notes: V-ATPase subunit C, S. cerevisiae, residues 11-30; source: synthetic peptide, spotted on glass slide array (Intavis)
- binding result [3]: binds
- binding result [4]: binds

B5: C(181-200) (peptide, UniProt P31412 181-200, looked up)
peptide: PEDFVLNSEHLTTVLVAVPK-cellulose
modifications: reading uncertain
notes: as for B2
- binding result [3]: binds

B6: a(451-470) (peptide, UniProt P32563 451-470, looked up)
peptide: RGEIFDMAFTGRYIILLMGV-cellulose
modifications: reading uncertain
notes: as for B2
- binding result [3]: binds

B7: D(111-130) (peptide)
peptide: SYIDPEINDFRLTGLGRGGQ-cellulose
modifications: reading uncertain
notes: The promiscuous, 'sticky' peptide that was detected by most probes including MBP alone; source: synthetic peptide, spotted on glass slide array (Intavis)
- binding result [5]: binds
